T1: Factor XIIa (FXIIa) (UniProt P00748 20-372; P00748 373-615, limits assumed)
T1 construct: the description speaks of human FXIIa; also called active Factor XII
T1 sequence (looked up) 1: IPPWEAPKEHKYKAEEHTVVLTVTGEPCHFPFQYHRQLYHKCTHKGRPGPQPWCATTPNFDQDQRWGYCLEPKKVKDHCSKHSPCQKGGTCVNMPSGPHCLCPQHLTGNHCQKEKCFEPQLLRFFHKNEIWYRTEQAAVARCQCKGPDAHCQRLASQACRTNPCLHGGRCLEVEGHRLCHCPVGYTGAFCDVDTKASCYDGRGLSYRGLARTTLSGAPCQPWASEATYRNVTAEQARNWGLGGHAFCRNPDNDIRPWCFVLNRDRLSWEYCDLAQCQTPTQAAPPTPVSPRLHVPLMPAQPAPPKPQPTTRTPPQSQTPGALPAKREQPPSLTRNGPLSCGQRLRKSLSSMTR
T1 sequence (looked up) 2: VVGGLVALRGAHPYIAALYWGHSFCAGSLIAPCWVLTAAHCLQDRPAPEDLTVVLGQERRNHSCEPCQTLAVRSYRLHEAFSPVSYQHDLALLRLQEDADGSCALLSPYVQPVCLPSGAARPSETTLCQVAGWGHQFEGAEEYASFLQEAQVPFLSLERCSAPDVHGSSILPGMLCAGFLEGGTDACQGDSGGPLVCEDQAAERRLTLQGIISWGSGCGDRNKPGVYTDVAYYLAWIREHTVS


How the values were obtained:
Factor XIIa (FXIIa) = biological target: T1, Factor XIIa (FXIIa); assay: enzyme inhibition, corrected Ki,app
plasma kallikrein (pKal) = biological target: T2, plasma kallikrein (pKal) (UniProt P03952 20-390; P03952 391-638, limits assumed); assay: enzyme inhibition, corrected Ki,app
T2 construct: the description speaks of human pKal; also called active pKal
T2 sequence (P03952 20-390 limits assumed, form in doubt, chain 1 of 2): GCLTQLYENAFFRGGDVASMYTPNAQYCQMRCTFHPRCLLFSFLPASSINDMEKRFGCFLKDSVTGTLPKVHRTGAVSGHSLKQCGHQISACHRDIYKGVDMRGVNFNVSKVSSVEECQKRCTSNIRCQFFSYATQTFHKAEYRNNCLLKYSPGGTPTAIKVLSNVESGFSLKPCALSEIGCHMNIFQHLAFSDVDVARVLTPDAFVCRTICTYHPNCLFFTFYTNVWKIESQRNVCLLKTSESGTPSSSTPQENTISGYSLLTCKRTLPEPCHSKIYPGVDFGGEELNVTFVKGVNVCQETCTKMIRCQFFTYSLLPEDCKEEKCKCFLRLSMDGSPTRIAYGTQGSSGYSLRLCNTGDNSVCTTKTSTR
T2 sequence (P03952 391-638 limits assumed, form in doubt, chain 2 of 2): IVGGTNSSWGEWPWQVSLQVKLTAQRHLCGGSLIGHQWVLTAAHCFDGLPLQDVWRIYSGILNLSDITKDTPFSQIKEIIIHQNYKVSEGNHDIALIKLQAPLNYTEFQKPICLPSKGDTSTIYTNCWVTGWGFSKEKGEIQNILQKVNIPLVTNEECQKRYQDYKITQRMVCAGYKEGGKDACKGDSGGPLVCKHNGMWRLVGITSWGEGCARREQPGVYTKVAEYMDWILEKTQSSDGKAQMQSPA

Row | Binder | Ki (Factor XIIa (FXIIa)) [nM] | Ki (plasma kallikrein (pKal)) [nM]
1 | 620I-X0138-D05 (bispecific antibody, also called 620I-X138-D05) heavy: not shown light: DIQMTQSPSTLSASVGDRVTITCRASQSISSWLAWYQQKPGKAPKLLIYKASTLESGVPSRFSGSGSGTEFTLTISSLQPDDFATYYCQQYNTYWTFGQGTKVEIKRTVAAPSVFIFPPSDEQLKSGTASVVCLLNNFYPREAKVQWKVDNALQSGNSQESVTEQDSKDSTYSLSSTLTLSKADYEKHKVYACEVTHQGLSSPVTKSFNRGEC | 0.139 | 0.519
2 | 620I-X0139-B10 (bispecific antibody, also called 620I-X139-B10) heavy: not shown light: DIQMTQSPSTLSASVGDRVTITCRASQSISSWLAWYQQKPGKAPKLLIYKASTLESGVPSRFSGSGSGTEFTLTISSLQPDDFATYYCQQYNTYWTFGQGTKVEIKRTVAAPSVFIFPPSDEQLKSGTASVVCLLNNFYPREAKVQWKVDNALQSGNSQESVTEQDSKDSTYSLSSTLTLSKADYEKHKVYACEVTHQGLSSPVTKSFNRGEC | 0.189 | 0.247
3 | 620I-X0139-A12 (bispecific antibody, also called 620I-X139-A12) heavy: not shown light: DIQMTQSPSTLSASVGDRVTITCRASQSISSWLAWYQQKPGKAPKLLIYKASTLESGVPSRFSGSGSGTEFTLTISSLQPDDFATYYCQQYNTYWTFGQGTKVEIKRTVAAPSVFIFPPSDEQLKSGTASVVCLLNNFYPREAKVQWKVDNALQSGNSQESVTEQDSKDSTYSLSSTLTLSKADYEKHKVYACEVTHQGLSSPVTKSFNRGEC | 4.08 | 2.05
4 | 620I-X0138-D11 (bispecific antibody, also called 620I-X138-D11) heavy: not shown light: DIQMTQSPSTLSASVGDRVTITCRASQSISSWLAWYQQKPGKAPKLLIYKASTLESGVPSRFSGSGSGTEFTLTISSLQPDDFATYYCQQYNTYWTFGQGTKVEIKRTVAAPSVFIFPPSDEQLKSGTASVVCLLNNFYPREAKVQWKVDNALQSGNSQESVTEQDSKDSTYSLSSTLTLSKADYEKHKVYACEVTHQGLSSPVTKSFNRGEC | 0.443 | 0.178
5 | 620I-X0138-D06 (bispecific antibody, also called 620I-X138-D06) heavy: not shown light: DIQMTQSPSTLSASVGDRVTITCRASQSISSWLAWYQQKPGKAPKLLIYKASTLESGVPSRFSGSGSGTEFTLTISSLQPDDFATYYCQQYNTYWTFGQGTKVEIKRTVAAPSVFIFPPSDEQLKSGTASVVCLLNNFYPREAKVQWKVDNALQSGNSQESVTEQDSKDSTYSLSSTLTLSKADYEKHKVYACEVTHQGLSSPVTKSFNRGEC | 0.132 | 0.199
6 | 620I-X0139-E05 (bispecific antibody, also called 620I-X139-E05) heavy: not shown light: DIQMTQSPSTLSASVGDRVTITCRASQSISSWLAWYQQKPGKAPKLLIYKASTLESGVPSRFSGSGSGTEFTLTISSLQPDDFATYYCQQYNTYWTFGQGTKVEIKRTVAAPSVFIFPPSDEQLKSGTASVVCLLNNFYPREAKVQWKVDNALQSGNSQESVTEQDSKDSTYSLSSTLTLSKADYEKHKVYACEVTHQGLSSPVTKSFNRGEC | 0.172 | 0.196
7 | 620I-X0138-F05 (bispecific antibody, also called 620I-X138-F05) heavy: not shown light: DIQMTQSPSTLSASVGDRVTITCRASQSISSWLAWYQQKPGKAPKLLIYKASTLESGVPSRFSGSGSGTEFTLTISSLQPDDFATYYCQQYNTYWTFGQGTKVEIKRTVAAPSVFIFPPSDEQLKSGTASVVCLLNNFYPREAKVQWKVDNALQSGNSQESVTEQDSKDSTYSLSSTLTLSKADYEKHKVYACEVTHQGLSSPVTKSFNRGEC | 0.147 | 0.214
8 | 620I-X0139-A01 (bispecific antibody, also called 620I-X139-A01) heavy: not shown light: DIQMTQSPSTLSASVGDRVTITCRASQSISSWLAWYQQKPGKAPKLLIYKASTLESGVPSRFSGSGSGTEFTLTISSLQPDDFATYYCQQYNTYWTFGQGTKVEIKRTVAAPSVFIFPPSDEQLKSGTASVVCLLNNFYPREAKVQWKVDNALQSGNSQESVTEQDSKDSTYSLSSTLTLSKADYEKHKVYACEVTHQGLSSPVTKSFNRGEC | 0.053 | 0.146
9 | 620I-X0142-A05 (bispecific antibody, also called 620I-X142-A05) heavy: not shown light: DIQMTQSPSTLSASVGDRVTITCRASQSISSWLAWYQQKPGKAPKLLIYKASTLESGVPSRFSGSGSGTEFTLTISSLQPDDFATYYCQQYNTYWTFGQGTKVEIKRTVAAPSVFIFPPSDEQLKSGTASVVCLLNNFYPREAKVQWKVDNALQSGNSQESVTEQDSKDSTYSLSSTLTLSKADYEKHKVYACEVTHQGLSSPVTKSFNRGEC | 2.14 | 0.16
10 | 620I-X0142-B02 (bispecific antibody, also called 620I-X142-B02) heavy: not shown light: DIQMTQSPSTLSASVGDRVTITCRASQSISSWLAWYQQKPGKAPKLLIYKASTLESGVPSRFSGSGSGTEFTLTISSLQPDDFATYYCQQYNTYWTFGQGTKVEIKRTVAAPSVFIFPPSDEQLKSGTASVVCLLNNFYPREAKVQWKVDNALQSGNSQESVTEQDSKDSTYSLSSTLTLSKADYEKHKVYACEVTHQGLSSPVTKSFNRGEC | 0.955 | 0.156
11 | 620I-X0138-E03 (bispecific antibody, also called 620I-X138-E03) heavy: not shown light: DIQMTQSPSTLSASVGDRVTITCRASQSISSWLAWYQQKPGKAPKLLIYKASTLESGVPSRFSGSGSGTEFTLTISSLQPDDFATYYCQQYNTYWTFGQGTKVEIKRTVAAPSVFIFPPSDEQLKSGTASVVCLLNNFYPREAKVQWKVDNALQSGNSQESVTEQDSKDSTYSLSSTLTLSKADYEKHKVYACEVTHQGLSSPVTKSFNRGEC | 0.122 | 0.178
12 | 620I-X0139-G12 (bispecific antibody, also called 620I-X139-G12) heavy: not shown light: DIQMTQSPSTLSASVGDRVTITCRASQSISSWLAWYQQKPGKAPKLLIYKASTLESGVPSRFSGSGSGTEFTLTISSLQPDDFATYYCQQYNTYWTFGQGTKVEIKRTVAAPSVFIFPPSDEQLKSGTASVVCLLNNFYPREAKVQWKVDNALQSGNSQESVTEQDSKDSTYSLSSTLTLSKADYEKHKVYACEVTHQGLSSPVTKSFNRGEC | 0.252 | 0.276
13 | 620I-X0138-E05 (bispecific antibody, also called 620I-X138-E05) heavy: not shown light: DIQMTQSPSTLSASVGDRVTITCRASQSISSWLAWYQQKPGKAPKLLIYKASTLESGVPSRFSGSGSGTEFTLTISSLQPDDFATYYCQQYNTYWTFGQGTKVEIKRTVAAPSVFIFPPSDEQLKSGTASVVCLLNNFYPREAKVQWKVDNALQSGNSQESVTEQDSKDSTYSLSSTLTLSKADYEKHKVYACEVTHQGLSSPVTKSFNRGEC | 0.245 | 0.186
14 | 620I-X0138-G12 (bispecific antibody, also called 620I-X138-G12) heavy: not shown light: DIQMTQSPSTLSASVGDRVTITCRASQSISSWLAWYQQKPGKAPKLLIYKASTLESGVPSRFSGSGSGTEFTLTISSLQPDDFATYYCQQYNTYWTFGQGTKVEIKRTVAAPSVFIFPPSDEQLKSGTASVVCLLNNFYPREAKVQWKVDNALQSGNSQESVTEQDSKDSTYSLSSTLTLSKADYEKHKVYACEVTHQGLSSPVTKSFNRGEC | 0.766 | 0.186
15 | 620I-X0142-B07 (bispecific antibody, also called 620I-X142-B07) heavy: not shown light: DIQMTQSPSTLSASVGDRVTITCRASQSISSWLAWYQQKPGKAPKLLIYKASTLESGVPSRFSGSGSGTEFTLTISSLQPDDFATYYCQQYNTYWTFGQGTKVEIKRTVAAPSVFIFPPSDEQLKSGTASVVCLLNNFYPREAKVQWKVDNALQSGNSQESVTEQDSKDSTYSLSSTLTLSKADYEKHKVYACEVTHQGLSSPVTKSFNRGEC | 0.775 | 0.224
16 | 620I-X0139-D12 (bispecific antibody, also called 620I-X139-D12) heavy: not shown light: DIQMTQSPSTLSASVGDRVTITCRASQSISSWLAWYQQKPGKAPKLLIYKASTLESGVPSRFSGSGSGTEFTLTISSLQPDDFATYYCQQYNTYWTFGQGTKVEIKRTVAAPSVFIFPPSDEQLKSGTASVVCLLNNFYPREAKVQWKVDNALQSGNSQESVTEQDSKDSTYSLSSTLTLSKADYEKHKVYACEVTHQGLSSPVTKSFNRGEC | 0.383 | 0.428
17 | 620I-X0142-A04 (bispecific antibody, also called 620I-X142-A04) heavy: not shown light: DIQMTQSPSTLSASVGDRVTITCRASQSISSWLAWYQQKPGKAPKLLIYKASTLESGVPSRFSGSGSGTEFTLTISSLQPDDFATYYCQQYNTYWTFGQGTKVEIKRTVAAPSVFIFPPSDEQLKSGTASVVCLLNNFYPREAKVQWKVDNALQSGNSQESVTEQDSKDSTYSLSSTLTLSKADYEKHKVYACEVTHQGLSSPVTKSFNRGEC | 1.23 | 0.162
18 | 620I-X0139-A11 (bispecific antibody, also called 620I-X139-A11) heavy: not shown light: DIQMTQSPSTLSASVGDRVTITCRASQSISSWLAWYQQKPGKAPKLLIYKASTLESGVPSRFSGSGSGTEFTLTISSLQPDDFATYYCQQYNTYWTFGQGTKVEIKRTVAAPSVFIFPPSDEQLKSGTASVVCLLNNFYPREAKVQWKVDNALQSGNSQESVTEQDSKDSTYSLSSTLTLSKADYEKHKVYACEVTHQGLSSPVTKSFNRGEC | 3.83 | 0.235
19 | 620I-X0138-F02 (bispecific antibody, also called 620I-X138-F02) heavy: not shown light: DIQMTQSPSTLSASVGDRVTITCRASQSISSWLAWYQQKPGKAPKLLIYKASTLESGVPSRFSGSGSGTEFTLTISSLQPDDFATYYCQQYNTYWTFGQGTKVEIKRTVAAPSVFIFPPSDEQLKSGTASVVCLLNNFYPREAKVQWKVDNALQSGNSQESVTEQDSKDSTYSLSSTLTLSKADYEKHKVYACEVTHQGLSSPVTKSFNRGEC | 0.794 | 0.464
20 | 620I-X0142-A02 (bispecific antibody, also called 620I-X142-A02) heavy: not shown light: DIQMTQSPSTLSASVGDRVTITCRASQSISSWLAWYQQKPGKAPKLLIYKASTLESGVPSRFSGSGSGTEFTLTISSLQPDDFATYYCQQYNTYWTFGQGTKVEIKRTVAAPSVFIFPPSDEQLKSGTASVVCLLNNFYPREAKVQWKVDNALQSGNSQESVTEQDSKDSTYSLSSTLTLSKADYEKHKVYACEVTHQGLSSPVTKSFNRGEC | 0.063 | 0.152

— US20250263504A1 (Takeda / Millennium, published 2025)
